From patent US12383631B2, “Immune antigen specific IL-18 immunocytokines and uses thereof” (Bright Peak Therapeutics AG, priority 2022, dated 2025) come the findings set out here.

Test [1] has as its target His-tagged human PD1 (Homo sapiens, UniProt Q15116). In words: Bio-Layer Interferometry (BLI) binding kinetics to PD-1 (Example 6). The note with it: AHC sensors, analyte His-tagged human PD1. An excerpt:
Based on Bio-Layer Interferometry (BLI), Octet® BLI systems enable real-time, label-free analysis for the determination of kinetics and affinity of a ligands to its receptor. Here anti-human IgG FC Capture (AHC) sensors are loaded with the test items (ICs). Sensors are first dipped into a kinetic buffer for baseline measurement, then into an analyte solution, here human PD1, to allow association and again into a buffer solution where the analyte is allowed to come off the ligand (dissociation). Several concentrations of analyte are run in parallel and enable the calculation of affinity parameters: Ka, Kd, KD.
Typically, first, the sensors are regenerated by 3 cycles of dipping into 10 mM glycine solution at pH=2 for 20 seconds, followed by 20 second kinetics buffer and a final 60 seconds in kinetics buffer to establish the initial signal (baseline). Second, the loading column will contain the ligand, here the unmodified PD-1 antibodies and of IL-18 polypeptide conjugated PD-1 antibody, at a fixed concentration determined in the loading scout experiment (20 ug/mL). Then another wash/baseline step allows non immobilized proteins to be washed away. […] After acquisition, the data is analyzed with Data Analysis Studio software (Sartorius). […] Group fitting is then applied to the data series and kinetics parameters are calculated.
(In BLI a coated tip is dipped into the sample, and binding shifts an interference pattern.)

Test [2] deals with T1, NK92 cells (Homo sapiens, UniProt O95256+Q13478).
T1 sequence (Q13478 19-541): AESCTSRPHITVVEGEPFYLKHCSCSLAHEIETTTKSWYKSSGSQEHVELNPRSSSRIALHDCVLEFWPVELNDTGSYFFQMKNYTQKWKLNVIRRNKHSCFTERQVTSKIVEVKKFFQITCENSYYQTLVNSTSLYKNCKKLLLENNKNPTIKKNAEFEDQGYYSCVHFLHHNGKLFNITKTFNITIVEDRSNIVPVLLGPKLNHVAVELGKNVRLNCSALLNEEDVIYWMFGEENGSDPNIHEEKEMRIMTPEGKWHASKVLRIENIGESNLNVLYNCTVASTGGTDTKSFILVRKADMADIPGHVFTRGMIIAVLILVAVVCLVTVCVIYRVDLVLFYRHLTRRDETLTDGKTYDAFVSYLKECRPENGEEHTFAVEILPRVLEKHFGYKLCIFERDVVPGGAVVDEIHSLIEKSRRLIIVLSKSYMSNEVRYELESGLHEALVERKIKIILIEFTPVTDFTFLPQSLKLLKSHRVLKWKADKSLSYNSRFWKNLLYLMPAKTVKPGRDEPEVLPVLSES
T1 sequence (O95256 20-599): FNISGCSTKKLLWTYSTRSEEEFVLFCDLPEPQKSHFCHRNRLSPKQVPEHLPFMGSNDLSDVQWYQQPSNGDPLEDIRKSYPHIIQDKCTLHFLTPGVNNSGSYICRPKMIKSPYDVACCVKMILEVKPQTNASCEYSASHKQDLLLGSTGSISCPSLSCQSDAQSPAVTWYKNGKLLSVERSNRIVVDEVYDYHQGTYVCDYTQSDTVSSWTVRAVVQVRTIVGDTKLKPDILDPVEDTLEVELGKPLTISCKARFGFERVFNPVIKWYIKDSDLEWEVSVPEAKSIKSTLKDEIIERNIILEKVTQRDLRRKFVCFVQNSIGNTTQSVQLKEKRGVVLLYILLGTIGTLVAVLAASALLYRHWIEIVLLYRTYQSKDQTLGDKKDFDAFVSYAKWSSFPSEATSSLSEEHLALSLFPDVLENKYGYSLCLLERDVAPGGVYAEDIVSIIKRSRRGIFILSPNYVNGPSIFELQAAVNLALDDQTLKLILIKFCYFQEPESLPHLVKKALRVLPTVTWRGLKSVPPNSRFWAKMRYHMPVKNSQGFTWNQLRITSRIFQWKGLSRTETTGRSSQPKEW
The test can be described thus: IFN gamma secretion assay in NK92 cells (Example 10). It is filed as cell-based. Conditions: 1 ng/ml IL-12, 16-20 h, read-out: EC50 IFNγ secretion NK92 assay. The method, then: The IFNγ-secretion stimulating activity of the unconjugated IL-18 variants and corresponding IL-18 immunocytokines was evaluated on NK92 cell line. The NIK cell line NK-92 derived from a patient with lymphoma (ATCC, Cat #CRL-2407) was cultured in aMIEM medium supplemented with 12.5% FCS, 12.5% horse serum (HS), 50 uM B-mercaptoEthanol, and 2 ng/ml of recombinant Human Interleukin-2 (IL-2).
On the day of experiment, cells were harvested and washed with aNMEM medium without IL-2 and resuspended in medium (w/o IL-2) containing 1 ng/ml of recombinant human Interleukin-12 (Sinofliologicals, Cat #CT011-H08H). After counting, cells were seeded at 100 000 cells/well in a 384 well titer plate and incubated at 37° C./5% CO2. […]
After 16-20 h incubation at 37° C./5% CO2, 5 μl of supernatant were carefully transferred to a 384 microwells OPTIPlate (Perkin Elmer; Cat #6007270) and Interferon-gamma (IFNγ) levels measured using the Human IFNγ AlphaLISA Assay Kit (Perkin Elmer, Cat #AL217C). […] AlphaLisa signal was then measured on an Enspire plate reader (Perkin Elmer) using 680 and 615 nm as excitation and emission wavelengths respectively. Half maximal effective concentration (EC50) was calculated based on a variable slope, four parameter analysis using GraphPad PRISM software.

Sequence of His-tagged human PD1 (Q15116 25-288): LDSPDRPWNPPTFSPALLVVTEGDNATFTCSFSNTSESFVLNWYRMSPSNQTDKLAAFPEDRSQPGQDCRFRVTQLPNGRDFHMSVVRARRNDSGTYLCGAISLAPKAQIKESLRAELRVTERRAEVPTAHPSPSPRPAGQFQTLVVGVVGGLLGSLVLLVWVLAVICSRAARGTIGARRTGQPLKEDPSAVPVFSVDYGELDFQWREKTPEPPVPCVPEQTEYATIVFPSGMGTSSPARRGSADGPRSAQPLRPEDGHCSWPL

Turning to “LZM-009: anti-PD-1 antibody (VH SEQ ID NO: 376, VL SEQ ID NO: 377), unconjugated reference antibody [reference compound]”, in test [1], the ka was 342000 M⁻¹ s⁻¹ and the kd was determined as 0.0077 s⁻¹. A word on the EC50: it is the concentration giving half of the maximal effect. In the case of “Composition B: immunocytokine: Atezolizumab/Tecentriq (anti-PD-L1) conjugated to IL-18 polypeptide SEQ ID NO: 30”, the EC50 in test [2] was determined as 1 pM.
